Legend:
Test in all cases: co-immunoprecipitation, transfected HEK293T cells, SDS-PAGE/immunoblot
cIAP1 = cIAP1 (UniProt Q13490 1-618, limits assumed)
Method: (§1) The TUCAN polypeptides were expressed by transient transfection in HEK293T cells together with epitope-tagged pro-caspase-9 or other proteins. […] Cell lysates were prepared from transfected cells and immunoprecipitations were performed using anti-Flag or anti-Myc antibodies, followed by SDS-PAGE/immunoblot analysis.

pro-caspase-10 = target: T1, pro-caspase-10 (UniProt Q92851 1-521, limits assumed)
T1 sequence (looked up): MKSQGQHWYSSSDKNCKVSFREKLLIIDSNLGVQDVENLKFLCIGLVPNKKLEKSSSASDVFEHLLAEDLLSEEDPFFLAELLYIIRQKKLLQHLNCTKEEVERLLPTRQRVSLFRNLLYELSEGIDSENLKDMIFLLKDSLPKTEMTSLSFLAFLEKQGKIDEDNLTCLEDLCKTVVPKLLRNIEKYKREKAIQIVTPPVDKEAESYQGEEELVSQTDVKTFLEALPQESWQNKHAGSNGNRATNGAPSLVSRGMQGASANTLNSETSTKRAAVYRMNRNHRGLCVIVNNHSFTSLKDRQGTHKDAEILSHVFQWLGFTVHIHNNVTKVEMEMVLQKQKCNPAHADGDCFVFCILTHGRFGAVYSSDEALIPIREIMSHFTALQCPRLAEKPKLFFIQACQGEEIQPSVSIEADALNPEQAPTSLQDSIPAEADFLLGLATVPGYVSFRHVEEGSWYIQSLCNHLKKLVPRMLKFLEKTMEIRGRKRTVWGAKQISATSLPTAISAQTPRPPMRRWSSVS
Method: as §1

Cardiak (RIP2) = target: T2, Cardiak (RIP2) (UniProt O43353 1-540, limits assumed)
T2 construct: also called RICK
Method: as §1

CED4 = target: T3, CED4 (UniProt P30429 1-549, limits assumed)
T3 sequence (looked up): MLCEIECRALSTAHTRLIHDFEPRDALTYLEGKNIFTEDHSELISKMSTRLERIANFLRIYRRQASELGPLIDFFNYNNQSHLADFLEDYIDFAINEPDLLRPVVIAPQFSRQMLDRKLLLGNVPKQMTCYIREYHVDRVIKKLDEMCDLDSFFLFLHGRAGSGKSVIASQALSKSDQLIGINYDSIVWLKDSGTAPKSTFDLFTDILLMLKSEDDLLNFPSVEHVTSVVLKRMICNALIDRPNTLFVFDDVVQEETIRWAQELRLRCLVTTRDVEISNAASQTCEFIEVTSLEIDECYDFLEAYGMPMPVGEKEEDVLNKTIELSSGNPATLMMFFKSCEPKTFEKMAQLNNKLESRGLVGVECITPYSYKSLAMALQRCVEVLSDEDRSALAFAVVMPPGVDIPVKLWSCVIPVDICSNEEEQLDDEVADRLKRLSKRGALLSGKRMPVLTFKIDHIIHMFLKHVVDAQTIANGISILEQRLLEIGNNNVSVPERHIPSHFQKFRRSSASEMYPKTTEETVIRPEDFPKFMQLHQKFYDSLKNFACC
Method: as §1

Nod1 (CARD4) = target: T4, Nod1 (CARD4) (UniProt Q9Y239 1-953, limits assumed)
T4 construct: also called Nodl
T4 sequence (looked up): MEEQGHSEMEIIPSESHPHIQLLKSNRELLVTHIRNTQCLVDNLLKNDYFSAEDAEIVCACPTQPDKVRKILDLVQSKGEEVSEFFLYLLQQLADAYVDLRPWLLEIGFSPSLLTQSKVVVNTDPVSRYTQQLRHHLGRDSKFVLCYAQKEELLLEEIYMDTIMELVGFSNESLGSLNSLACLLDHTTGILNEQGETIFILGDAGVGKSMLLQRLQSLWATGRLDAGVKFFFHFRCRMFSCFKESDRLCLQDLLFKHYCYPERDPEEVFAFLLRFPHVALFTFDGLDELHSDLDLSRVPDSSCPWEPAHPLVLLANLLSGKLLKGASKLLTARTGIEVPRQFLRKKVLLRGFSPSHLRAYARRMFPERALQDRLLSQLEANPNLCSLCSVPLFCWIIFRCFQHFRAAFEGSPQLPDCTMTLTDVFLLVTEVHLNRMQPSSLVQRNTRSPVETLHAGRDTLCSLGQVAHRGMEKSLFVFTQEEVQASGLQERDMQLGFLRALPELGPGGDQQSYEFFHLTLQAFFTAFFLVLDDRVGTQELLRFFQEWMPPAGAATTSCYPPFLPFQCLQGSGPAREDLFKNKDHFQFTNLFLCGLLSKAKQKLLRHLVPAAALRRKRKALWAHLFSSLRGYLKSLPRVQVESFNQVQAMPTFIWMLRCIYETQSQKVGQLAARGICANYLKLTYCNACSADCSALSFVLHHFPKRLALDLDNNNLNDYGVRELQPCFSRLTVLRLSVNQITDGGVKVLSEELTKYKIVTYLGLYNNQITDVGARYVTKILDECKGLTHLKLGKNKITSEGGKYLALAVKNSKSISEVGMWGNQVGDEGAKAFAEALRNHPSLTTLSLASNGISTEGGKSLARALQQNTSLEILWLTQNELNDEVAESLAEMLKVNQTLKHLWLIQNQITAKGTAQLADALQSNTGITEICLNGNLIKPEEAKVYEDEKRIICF
Method: as §1

pro-caspase-8 = pro-caspase-8 (UniProt Q14790 1-479, limits assumed)
Method: as §1

cIAP2 = cIAP2 (Homo sapiens (Human), UniProt Q13489 1-604)
Method: as §1

CARD9 = target: T5, CARD9 (UniProt Q9H257 1-536, limits assumed)
T5 sequence (looked up): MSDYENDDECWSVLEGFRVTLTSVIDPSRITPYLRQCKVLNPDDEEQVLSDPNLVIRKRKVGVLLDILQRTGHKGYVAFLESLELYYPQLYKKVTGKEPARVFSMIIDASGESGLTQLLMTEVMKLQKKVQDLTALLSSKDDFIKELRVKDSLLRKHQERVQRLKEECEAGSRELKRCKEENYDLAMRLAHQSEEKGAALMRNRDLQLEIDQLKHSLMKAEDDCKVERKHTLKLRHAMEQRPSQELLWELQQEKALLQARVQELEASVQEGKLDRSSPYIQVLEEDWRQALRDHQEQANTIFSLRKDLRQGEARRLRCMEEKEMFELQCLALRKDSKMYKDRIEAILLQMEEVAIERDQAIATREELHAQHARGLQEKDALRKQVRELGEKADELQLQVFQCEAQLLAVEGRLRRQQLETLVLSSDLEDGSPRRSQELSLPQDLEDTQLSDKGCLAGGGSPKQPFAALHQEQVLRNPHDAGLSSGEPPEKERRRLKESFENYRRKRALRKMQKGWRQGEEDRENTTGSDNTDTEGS
Method: as §1

Measured: binding result

cIAP1, sequence (Q13490 whole entry): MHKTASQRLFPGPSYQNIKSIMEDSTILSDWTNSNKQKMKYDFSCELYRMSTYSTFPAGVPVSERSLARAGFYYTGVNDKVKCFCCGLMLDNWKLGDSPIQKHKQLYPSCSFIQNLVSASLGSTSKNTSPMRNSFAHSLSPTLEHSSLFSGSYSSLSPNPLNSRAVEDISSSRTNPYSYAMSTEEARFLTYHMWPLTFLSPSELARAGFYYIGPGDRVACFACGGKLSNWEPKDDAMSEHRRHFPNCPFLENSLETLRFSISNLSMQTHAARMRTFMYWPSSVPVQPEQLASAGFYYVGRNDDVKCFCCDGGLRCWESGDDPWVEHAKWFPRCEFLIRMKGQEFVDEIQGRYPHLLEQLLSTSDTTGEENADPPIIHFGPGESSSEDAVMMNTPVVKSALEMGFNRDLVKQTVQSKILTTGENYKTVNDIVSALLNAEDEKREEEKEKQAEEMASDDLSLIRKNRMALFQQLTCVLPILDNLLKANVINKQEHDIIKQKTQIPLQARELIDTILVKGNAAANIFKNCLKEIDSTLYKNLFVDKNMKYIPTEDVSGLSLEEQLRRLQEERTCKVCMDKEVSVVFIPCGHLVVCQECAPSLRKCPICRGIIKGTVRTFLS
cIAP2, sequence (Q13489 whole entry): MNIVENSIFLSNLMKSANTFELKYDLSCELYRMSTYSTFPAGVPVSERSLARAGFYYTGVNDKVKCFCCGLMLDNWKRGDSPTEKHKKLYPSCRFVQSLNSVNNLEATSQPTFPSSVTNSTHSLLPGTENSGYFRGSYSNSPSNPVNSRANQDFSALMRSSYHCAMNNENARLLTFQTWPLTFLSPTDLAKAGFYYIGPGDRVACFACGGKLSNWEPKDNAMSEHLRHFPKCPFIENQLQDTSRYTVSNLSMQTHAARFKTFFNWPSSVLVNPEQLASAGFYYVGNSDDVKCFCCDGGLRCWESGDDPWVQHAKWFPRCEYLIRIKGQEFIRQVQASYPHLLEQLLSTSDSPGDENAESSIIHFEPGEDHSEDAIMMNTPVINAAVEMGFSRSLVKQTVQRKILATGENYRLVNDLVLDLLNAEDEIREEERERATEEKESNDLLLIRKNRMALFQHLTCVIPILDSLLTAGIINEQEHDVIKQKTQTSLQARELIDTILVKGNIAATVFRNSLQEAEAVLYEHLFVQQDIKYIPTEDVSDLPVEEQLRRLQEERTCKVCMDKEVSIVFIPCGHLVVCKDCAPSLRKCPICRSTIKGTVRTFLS
T2 sequence (O43353 whole entry): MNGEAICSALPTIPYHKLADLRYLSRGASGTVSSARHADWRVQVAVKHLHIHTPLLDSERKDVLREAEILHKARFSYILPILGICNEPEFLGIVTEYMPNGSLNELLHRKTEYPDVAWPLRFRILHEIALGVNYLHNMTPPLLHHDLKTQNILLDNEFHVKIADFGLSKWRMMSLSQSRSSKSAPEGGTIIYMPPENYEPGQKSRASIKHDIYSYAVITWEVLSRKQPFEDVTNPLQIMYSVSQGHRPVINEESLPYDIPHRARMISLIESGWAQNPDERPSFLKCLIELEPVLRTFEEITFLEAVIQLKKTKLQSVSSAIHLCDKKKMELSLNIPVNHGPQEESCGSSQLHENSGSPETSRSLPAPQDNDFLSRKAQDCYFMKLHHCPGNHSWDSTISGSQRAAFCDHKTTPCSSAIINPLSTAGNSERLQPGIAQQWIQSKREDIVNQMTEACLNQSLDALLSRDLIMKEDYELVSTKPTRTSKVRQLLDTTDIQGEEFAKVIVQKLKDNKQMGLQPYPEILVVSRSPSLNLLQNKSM
pro-caspase-8, sequence (Q14790 whole entry): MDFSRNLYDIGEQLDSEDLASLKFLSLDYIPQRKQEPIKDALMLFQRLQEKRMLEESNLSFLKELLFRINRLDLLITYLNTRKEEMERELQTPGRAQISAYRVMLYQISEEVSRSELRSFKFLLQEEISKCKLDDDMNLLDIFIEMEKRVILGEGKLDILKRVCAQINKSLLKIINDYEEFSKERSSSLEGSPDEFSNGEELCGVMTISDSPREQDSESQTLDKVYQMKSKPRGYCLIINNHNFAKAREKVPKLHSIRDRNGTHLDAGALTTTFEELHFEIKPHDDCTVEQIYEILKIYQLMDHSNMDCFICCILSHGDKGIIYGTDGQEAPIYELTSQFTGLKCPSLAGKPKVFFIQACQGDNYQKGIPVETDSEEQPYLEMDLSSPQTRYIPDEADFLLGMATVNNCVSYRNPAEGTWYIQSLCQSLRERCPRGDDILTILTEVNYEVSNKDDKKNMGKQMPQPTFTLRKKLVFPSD

B1: TUCAN (Tumor Up-regulated CARD-containing Antagonist of Caspase Nine), full-length (other)
chain: MMRQRQSHYCSVLFLSVNYLGGTFPGDICSEENQIVSSYASKVCFEIEEDYKNRQFLGPEGNVDVELIDKSTNRYSVWFPTAGWYLWSATGLGFLVRDEVTVTIAFGSWSQHLALDLQHHEQWLVGGPLFDVTAEPEEAVAEIHLPHFISLQGEVDVSWFLVAHFKNEGMVLEHPARVEPFYAVLESPSFSLMGILLRIASGTRLSIPITSNTLIYYHPHPEDIKFHLYLVPSDALLTKAIDDEEDRFHGVRLQTSPPMEPLNFGSSYIVSNSANLKVMPKELKLSYRSPGEIQHFSKFYAGQMKEPIQLEITEKRHGTLVWDTEVKPVDLQLVAASAPPPFSGAAFVKENHRQLQARMGDLKGVLDDLQDNEVLTENEKELVEQEKTRQSKNEALLSMVEKKGDLALDVLFRSISERDPYLVSYLRQQNL
notes: Full-length TUCAN expressed by transient transfection in HEK293T cells; also called full-length TUCAN; CARD-X
no binding: cIAP1 | pro-caspase-10 | Cardiak (RIP2) | CED4 | Nod1 (CARD4) | pro-caspase-8 | cIAP2 | CARD9
